{"source": "patent US20050287164A1", "about": "(INHIBITEX, published 2005)", "binders": {"B1": {"name": "Monoclonal antibody 12-9 (antibody, V domains shown)", "VH": "QVQLKESGPGLVAPSQSLSITCAISGFSLSRYSVHWVRQPPGKGLEWLGMIWGGGNTDYNSALKSRLSISKDNSKSQVFLKMNSLQTDDTAMYYCARKGEFYYGYDGFVYWGQGTLVTVSA", "VL": "NIMMTQSPSSLAVSAGEKVTMSCKSSQSVLYSSNQKNYLAWYQQKPGQSPKLLIYWASTRESGVPDRFTGSGSGTDFTLTISSVQAEDLAVYYCHQYLSSYTFGGGTKLEIK", "notes": "also called F12-9; Mab 12-9"}}, "target": "T1, Clf40 (A domain of ClfA, AA 40-559, recombinant, six-histidine fusion) (Staphylococcus aureus strain Newman, UniProt Q53653 40-559)", "T1 construct": "also called ClfA 40", "T1 sequence": "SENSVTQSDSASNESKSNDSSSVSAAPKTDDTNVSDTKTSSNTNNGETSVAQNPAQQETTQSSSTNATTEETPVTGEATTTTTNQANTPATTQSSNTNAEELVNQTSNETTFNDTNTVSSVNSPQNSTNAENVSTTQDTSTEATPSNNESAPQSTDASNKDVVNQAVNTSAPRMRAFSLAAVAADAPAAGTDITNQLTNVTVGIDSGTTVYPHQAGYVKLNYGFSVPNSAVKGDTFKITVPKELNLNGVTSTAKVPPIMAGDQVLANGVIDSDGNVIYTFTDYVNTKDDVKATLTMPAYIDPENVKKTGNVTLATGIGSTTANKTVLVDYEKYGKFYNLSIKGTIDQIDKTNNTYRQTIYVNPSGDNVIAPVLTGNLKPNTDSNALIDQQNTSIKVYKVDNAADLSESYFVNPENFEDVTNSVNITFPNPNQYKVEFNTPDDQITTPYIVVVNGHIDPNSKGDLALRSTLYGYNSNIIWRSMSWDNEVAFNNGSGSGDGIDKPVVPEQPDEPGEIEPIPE", "assay": "Biacore 3000, Mab captured by rabbit anti-mouse Fc, Clf protein in flow"}
{"binder": "B1", "values": [{"measurement": "kon", "value": 774000, "unit": "M⁻¹ s⁻¹"}]}
